Article PMC5811034, “Xylem specific activation of 5’ upstream regulatory region of two NAC transcription factors (MusaVND6 and MusaVND7) in banana is regulated by SNBE-like sites”

Legend:
Assay in all cases: EMSA; 10 mM Tris pH 8, 5 mM MgCl2, 10 mM KCl, 20 min (temperature not stated); 1.5% agarose gel
Conditions in all cases: protein: recombinant, chain copies: 2
VND3 (MusaVND3) = biological target: T1, VND3 (MusaVND3) (Musa (banana), cultivar  for …, UniProt A0A0G2UF56 1-336)
T1 sequence: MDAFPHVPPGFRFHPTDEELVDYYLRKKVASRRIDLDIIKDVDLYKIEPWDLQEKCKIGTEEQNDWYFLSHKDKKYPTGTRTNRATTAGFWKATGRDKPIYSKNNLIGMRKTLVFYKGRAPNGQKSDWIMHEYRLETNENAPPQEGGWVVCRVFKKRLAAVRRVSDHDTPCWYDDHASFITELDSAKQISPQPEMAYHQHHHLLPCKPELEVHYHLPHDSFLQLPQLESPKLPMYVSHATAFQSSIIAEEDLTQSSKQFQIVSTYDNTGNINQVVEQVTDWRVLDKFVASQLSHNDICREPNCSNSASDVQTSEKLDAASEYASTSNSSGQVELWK

VND1 (MusaVND1) = biological target: T2, VND1 (MusaVND1) (Musa (banana), cultivar  for …, UniProt A0A0U3BXB0 1-329)
T2 sequence: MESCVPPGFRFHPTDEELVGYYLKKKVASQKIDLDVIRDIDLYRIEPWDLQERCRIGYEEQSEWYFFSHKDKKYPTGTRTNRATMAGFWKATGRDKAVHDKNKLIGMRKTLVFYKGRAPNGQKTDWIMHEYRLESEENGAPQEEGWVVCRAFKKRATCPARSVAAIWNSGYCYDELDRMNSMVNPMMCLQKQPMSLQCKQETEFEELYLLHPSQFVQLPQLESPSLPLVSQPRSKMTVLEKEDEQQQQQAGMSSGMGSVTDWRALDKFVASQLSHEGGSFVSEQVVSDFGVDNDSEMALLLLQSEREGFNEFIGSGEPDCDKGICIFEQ

VND2 (MusaVND2) = biological target: T3, VND2 (MusaVND2) (Musa (banana), cultivar  for …, UniProt A0A0G2UKP9 1-329)
T3 sequence: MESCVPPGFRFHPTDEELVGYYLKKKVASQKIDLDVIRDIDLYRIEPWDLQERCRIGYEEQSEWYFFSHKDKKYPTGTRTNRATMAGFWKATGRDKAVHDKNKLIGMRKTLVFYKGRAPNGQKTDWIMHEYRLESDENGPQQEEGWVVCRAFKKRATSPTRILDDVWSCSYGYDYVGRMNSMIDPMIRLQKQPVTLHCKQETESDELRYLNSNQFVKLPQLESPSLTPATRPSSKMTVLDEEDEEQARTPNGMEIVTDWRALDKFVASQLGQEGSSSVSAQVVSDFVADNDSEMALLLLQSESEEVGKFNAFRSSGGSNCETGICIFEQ

B1: SNBE-like site PMusaVND6 (-220 to -201), 38 bp (dsDNA)
DNA 1: AATTCGATAGCCTTAGTTGTAGGGCTCAAGATTTTGGT
DNA 2: ACCAAAATCTTGAGCCCTACAACTAAGGCTATCGAATT
- binding result (VND3 (MusaVND3); AGTTGTAGGGCTCAAGATT mutant): binds
- binding result (VND1 (MusaVND1); AGTTGTAGGGCTCAAGATT mutant): binds
- binding result (VND2 (MusaVND2); AGTTGTAGGGCTCAAGATT mutant): binds

B2: SNBE-like site PMusaVND7 (-186 to -167), 38 bp (dsDNA)
DNA 1: AATTCGATAGCCTTTGGCGTGCACTCAAAGAAATTGGT
DNA 2: ACCAATTTCTTTGAGTGCACGCCAAAGGCTATCGAATT
- binding result (VND3 (MusaVND3); TGGCGTGCACTCAAAGAAA mutant): binds
- binding result (VND1 (MusaVND1); TGGCGTGCACTCAAAGAAA mutant): binds
- binding result (VND2 (MusaVND2); TGGCGTGCACTCAAAGAAA mutant): binds

B3: mSNBE PMusaVND6 (dsDNA)
DNA 1: CCTTCGTAAAAGGGCTCTTTAGGTTGG
DNA 2: CCAACCTAAAGAGCCCTTTTACGAAGG
- binding result (VND3 (MusaVND3)): no binding
- binding result (VND1 (MusaVND1)): no binding
- binding result (VND2 (MusaVND2)): no binding

B4: mSNBE PMusaVND7 (dsDNA)
DNA 1: CCTTCGGAAAGCACTCATTTAGGTTGG
DNA 2: CCAACCTAAATGAGTGCTTTCCGAAGG
- binding result (VND3 (MusaVND3)): no binding
- binding result (VND1 (MusaVND1)): no binding
- binding result (VND2 (MusaVND2)): no binding
